Data taken from publication PMC3585277, “The C-Terminal Region Mesd Peptide Mimics Full-Length Mesd and Acts as an Inhibitor of Wnt/β-Catenin Signaling in Cancer Cells” (PLoS ONE, 2013).

B1: Mesd protein: recombinant mouse Mesd protein, full-length; binds mature LRP5 and LRP6, universal antagonist of LRP5/6 modulators (protein)
chain: ADTPGEATPPPRKKKDIRDYNDADMARLLEQWEKDDDIEEGDLPEHKRPSAPIDFSKLDPGKPESILKMTKKGKTLMMFVTVSGNPTEKETEEITSLWQGSLFNANYDVQRFIVGSDRAIFMLRDGSYAWEIKDFLVSQDRCAEVTLEGQMYPGKGGGSKEKNKTKPEKAKKKEGDPKPRASKEDNRAGSRREDL
modifications: 125I (IODO-GEN method) on the radioligand; unlabeled when used as competitor

Tests used:
HS578T cells [1] = experiment: BrdU proliferation ELISA, HS578T cells; assay type: cell-based, human; settings: peptide 2 µM, 7 days in 2% FBS then 2 days in 10% FBS, n = 6
Protocol: (§1) BrdU incorporation into proliferating cells was analyzed by a cell proliferation ELISA BrdU kit (colorimetric, Roche) according to the manufacturer's instructions.

MDA-MB-231 tumor = settings: cited from earlier work
PC-3 cells [2] = experiment: BrdU proliferation ELISA, PC-3 cells; assay type: cell-based, human; settings: PC-3, peptide 2 µM, 7 days in 2% FBS then 2 days in 10% FBS; n = 6
Protocol: as §1

OPG expression = experiment: Western blot of OPG expression in C2C12 cells; assay type: cell-based, mouse; settings: 48 h, mMesd 0.5 µM
Protocol: (§2) Cells in 6-well plates were lysed in 0.5 ml of lysis buffer (phosphate-buffered saline containing 1% Triton X-100 and 1 mM PMSF) at 4°C for 10 min. Equal quantities of protein were subjected to SDS-PAGE under reducing conditions. Following transfer to immobilon-P transfer membrane, successive incubations with anti-HA, anti-Wnt10b, anti-β-catenin, anti-OPG, anti-phosphorylated-LRP6, anti-LRP6, anti-Axin2, anti-Cyclin D1 or anti-actin, and horseradish peroxidase-conjugated secondary antibody were carried out for 60–120 min at room temperature. The immunoreactive proteins were then detected using the ECL system. Films showing immunoreactive bands were scanned by Kodak Digital Science DC120 Zoom Digital Camera.

PC-3 cells [3] = experiment: Cell viability, Cell Titer Glo Assay, PC-3 cells; assay type: cell-based, human; settings: Mesd 2 µM or hMesd (160–197) 2 µM with Adriamycin 0.5 µM, 2 days after pre-treatment
Protocol: (§3) Cell viability was measured in 96-well plates by the Cell Titer Glo Assay (Promega), which is a luminescent assay that is an indicator of live cells as a function of metabolic activity and ATP content.

HS578T cells [4] = experiment: Cell proliferation assay (trypan blue exclusion), HS578T cells; assay type: cell-based, human; settings: DMEM 2% FBS, 10 days, mMesd 2 µM, hMesd (160–197) 4 µM, control peptide 4 µM, n = 3
Protocol: (§4) Cells were seeded into 6-well plates at a density of 10000 cells/well. RPMI-1640 or DMEM medium containing 2% FBS was used as assay media. After 16 h incubation, the cells were treated with Mesd or its peptide for 10 days. Media were changed every other day. At the end of the experiment, cells were harvested and counted using the trypan blue exclusion assay.

Wnt/β-catenin signaling [5] = experiment: TOPFlash luciferase reporter assay, LRP5-transfected HEK293 cells; assay type: cell-based, human; settings: Wnt3A CM 5%, Rspo1 40 ng/ml, mMesd 2 µM, peptide at indicated concentrations, 24 h, normalized to β-galactosidase
Protocol: (§5) Cells were plated into 24-well plates. After overnight culture, the cells were transiently transfected with the TOPFlash or Super8XTOPFlash luciferase construct, β-galactosidase-expressing vector, and pcDNA3.1C-Myc-hLRP5, pCS-Myc-hLRP6 or control vector. After 24 h incubation, cells were treated with Mesd, Mesd peptide, Rspo1 and Wnt3A CM. Cells were then lysed 24 h later and both luciferase and β-galactosidase activities were determined. The luciferase activity was normalized to the β-galactosidase activity.

Wnt/β-catenin signaling [6] = settings: cited from earlier work
From the text: (§6) Treatment of prostate cancer cells with Wnt3A CM or purified recombinant Wnt ...

PC-3 cells [7] = settings: cited from earlier work
From the text: as §6

PC-3 tumor = settings: cited from earlier work
From the text: as §6

Wnt/β-catenin signaling [8] = experiment: Super8XTOPFlash luciferase reporter assay, PC-3 cells; assay type: cell-based, human; settings: 24 h treatment
Protocol: as §5

LRP6 phosphorylation = experiment: Western blot of phosphorylated LRP6 in C2C12 cells; assay type: cell-based, mouse; settings: C2C12, Wnt3A CM 5%, 6 h; mMesd 0.5 µM, peptide at indicated concentrations
Protocol: as §2

HS578T cells [9] = experiment: Cell viability, Cell Titer Glo Assay, HS578T cells; assay type: cell-based, human
Protocol: as §3

PC-3 cells [10] = experiment: Cell proliferation assay (trypan blue exclusion), PC-3 cells; assay type: cell-based, human; settings: PC-3, RPMI-1640 2% FBS, 10 days; mMesd 2 µM, hMesd (160–197) 4 µM, control peptide 4 µM; n = 3
Protocol: as §4

Wnt/β-catenin signaling [11] = experiment: TOPFlash luciferase reporter assay, LRP6-transfected HEK293 cells; assay type: cell-based, human; settings: Wnt3A CM 5%, Rspo1 40 ng/ml, mMesd 2 µM, peptide at indicated concentrations, 24 h, normalized to β-galactosidase
Protocol: as §5

Wnt/β-catenin signaling [12] = experiment: Super8XTOPFlash luciferase reporter assay, HS578T cells; assay type: cell-based, human; settings: 24 h treatment
Protocol: as §5

Molecule | BrdU incorporation (HS578T cells [1]) | MDA-MB-231 tumor growth (MDA-MB-231 tumor) | BrdU incorporation (PC-3 cells [2]) | OPG expression induced by Rspo1 plus Wnt3A (OPG expression; C2C12, Rspo1 20 ng/ml, Wnt3A CM 2%, mMesd (155–191) 2 µM) | Wnt3A-induced OPG expression (OPG expression; C2C12, Wnt3A CM 5%, peptide at indicated concentrations) | Adriamycin-induced cytotoxicity (PC-3 cells [3]) | cell proliferation (HS578T cells [4]) | TOPFlash activity induced by LRP5, LRP5 plus Wnt3A, LRP5 plus Rspo1 (Wnt/β-catenin signaling [5]) | Wnt/β-catenin signaling in prostate cancer PC-3 cells (Wnt/β-catenin signaling [6]) | PC-3 cell proliferation in vitro (PC-3 cells [7]) | PC-3 tumor growth in vivo (PC-3 tumor) | Wnt reporter luciferase activity (Wnt/β-catenin signaling [8]; PC-3, endogenous signaling, indicated concentrations) | Wnt reporter luciferase activity induced by Wnt1 (Wnt/β-catenin signaling [8]; PC-3 transfected with Wnt1 plasmid) | Wnt3A-induced endogenous LRP6 phosphorylation (LRP6 phosphorylation) | Adriamycin-induced cytotoxicity (HS578T cells [9]; Mesd 2 µM or hMesd (160–197) 2 µM with Adriamycin 0.5 µM, 2 days after pre-treatment) | inhibition of cell viability (HS578T cells [9]; single agent: Mesd protein 2 µM or Adriamycin 0.5 µM, Mesd 4 days pre-treatment, then 2 days, n = 4) | cell proliferation (PC-3 cells [10]) | TOPFlash activity induced by LRP6, LRP6 plus Wnt3A, LRP6 plus Rspo1 (Wnt/β-catenin signaling [11]) | Wnt reporter luciferase activity induced by Wnt1 (Wnt/β-catenin signaling [12]; HS578T transfected with Wnt1 plasmid) | Wnt reporter luciferase activity (Wnt/β-catenin signaling [12]; HS578T, endogenous signaling, indicated concentrations)
Mesd C-terminal region peptide: generic wording; in Figure 7B it is hMesd (160–197); in cited work (ref 13) the peptide is not specified (KGGGSKEKNKTKQDKGKKKKEGDLKSRSSKEENRAGNK) | decreased BrdU incorporation | suppressed | decreased BrdU incorporation |  |  |  |  |  |  |  |  |  |  |  |  |  |  |  |  | 
B1 |  | suppressed |  | repressed | able to suppress | potentiate | displayed inhibitory effect | blocked | markedly inhibited | suppressed | suppressed | significantly repressed | significantly repress | able to suppress | potentiate | 25% | displayed inhibitory effect | blocked | significantly repress | significantly repressed
